In the RNAGym collection of RNA variant scans (doi:10.7554/elife.80360) one finds self-cleavage data, which are given here for 38 variants.

B1: Hairpin Ribozyme (parent)
chain: GUCCUCUUUCACGUGCGCGUGAAAGAGAGAAGUGAACCAGAGAAACACACGUUGUGGUAUAUUACCUGGUA

Variants of B1 are the subject of the series. As to the kind of experiment: self-cleavage, relative activity (ratio to wild type); higher = more cleavage; co-transcriptional.
On to GUCCUCUUUCACGUGCGCGUGAAAGAGAGAAGAGUACCAGAGAAACACACGUUGUGGUAUAUUACCUGGUA [U33A A35U], for which the self-cleavage came to 0.131. Regarding GUCCUCUUUCACGUGCGCGUGAAAGAGAGAAGUGAACCAGAGAAAUACACGUUGUGGUAUAUUGCCUGGUA [C46U A64G], the self-cleavage turned out to be 0.021. Then GUCCUCUUUCACGUGCGCGUGAAAGAGAGAAGUGAAGCAGAGAAACCCACGUUGUGGUAUAUUACCUGGUA [C37G A47C], with 0.14; and GUCCUCUUUCACGUGCGCGUGAUAGAGAGAAGUGAAUCAGAGAAACACACGUUGUGGUAUAUUACCUGGUA [A23U C37U], with 0.594; and AUCCUCUUUUACGUGCGCGUGAAAGAGAGAAGUGAACCAGAGAAACACACGUUGUGGUAUAUUACCUGGUA [G1A C10U], with 0.235.

GUCCUCUUUCACGUGCGCGAGAAAGAGAGAAGUGAACCAGAGAAACACACGUUGUGGUAUAUUACCUAGUA [U20A G68A]: the self-cleavage came to 0.332. Turning to GUCCUCUUUCACGUGCGCAUGAAAGAGAGAAGUGAACCAGUGAAACACACGUUGUGGUAUAUUACCUGGUA [G19A A41U], the self-cleavage stood at 1.11. Turning to GUCCUCUUUCACGUGCGCGUGAAAGAAAGAAGUGAACCAAAGAAACACACGUUGUGGUAUAUUACCUGGUA [G27A G40A], the self-cleavage came to 0.143. With GUCCUCUGUCACGUGCGCGUGAAAGAGAGAAGUGAACCAGAGGAACACACGUUGUGGUAUAUUACCUGGUA [U8G A43G], the self-cleavage amounted to 0.132. GACCUCUUUCACGUGCGCGUGAAAGAGAGAAGUGAACCAGAGAAACACACGUUGUGGUAUACUACCUGGUA [U2A U62C]: the self-cleavage came out at 0.0796. The value for GUCCUCUUUCACGUGCGCGUGAAAGAGAGAAGUGAACCACACAAACACACGUUGUGGUAUAUUACCUGGUA [G40C G42C] was 0.107; that for GUCCUCUUUCACGUGCGCGUGAAAGAGAGAAGUGAACCAGAGAAACACUCGUAGUGGUAUAUUACCUGGUA [A49U U53A] was 0.139; that for GUCCUCUUUCACGUGCGCGUGAAAGAGAGAAGUGAACCAGAGAAACACACGUUGUGGUAUAUUAGUUGGUA [C65G C66U] was 0.429.

In the case of GUCCUCUUUCACGUGCGCGUGAAAGAGAGAAGUGAACCAGAGAAACACAGGUUGUGGUAUAUUACUUGGUA [C50G C66U], the self-cleavage was 0.146.

With GUCCUCUUUCAGGUGCGCGUGAAAGAGAGAAGUGAACCAGAGAAACACACGUUGUGGGAUAUUACCUGGUA [C12G U58G], the self-cleavage came to 0.502. On to GUCCUCUUUCACGUGCGCGUGAAAGAGAGAAGUGAACCAGAGAAACACUCGUUGUUGUAUAUUACCUGGUA [A49U G56U], for which the self-cleavage worked out at 0.147. Regarding GUCCUCUUUCACGUGCGCGUGAAAGAGAGAAGUGAACCAGAGAAACACUCGUUGUCGUAUAUUACCUGGUA [A49U G56C], the self-cleavage is 0.102. With GUCCUCUUCCACGUGCGCGCGAAAGAGAGAAGUGAACCAGAGAAACACACGUUGUGGUAUAUUACCUGGUA [U9C U20C], the self-cleavage came to 0.885. Consider GUCCUAUUUCACGUGCGCGUGAAAGAGAGAAGUGAACCAGAUAAACACACGUUGUGGUAUAUUACCUGGUA [C6A G42U], for which the self-cleavage came to 0.223. As to GUCCUAUUUCACGUGCGCGUGAAAGAGAGAAGUGAACCAGAGAAACACUCGUUGUGGUAUAUUACCUGGUA [C6A A49U], the self-cleavage came out at 0.162. On to GUCCUCUUUCACGUGCGCGUGAAAGAGAGAAGUGAACCAGAGAAACACACGUUGUGUUAUAUUACAUGGUA [G57U C66A], for which the self-cleavage was 0.219.

As to GUCCUCUUUCACGUGCGCGUGUAAGAGAGAAGUGAAUCAGAGAAACACACGUUGUGGUAUAUUACCUGGUA [A22U C37U], the self-cleavage came to 0.443. Take GUCCUCUUUCACGUGCGCGUGAAAGAGAGAAGUGAACCAGAGAAACACAUGUUGUGGUAUAUUACCAGGUA [C50U U67A]: the self-cleavage amounted to 0.2. Turning to GUCCUCUUUCACGUCCGCGUGAAAGAGAGAAGUGAACCAGAGAAACACACGUUGUGGUAUAUGACCUGGUA [G15C U63G], the self-cleavage turned out to be 0.127. GUCCUCUUUCACGUGCGCGUGAAAGAGAGAAGUGAACCAUAGAAACACACGUUGUGGUAUAUGACCUGGUA [G40U U63G]: the self-cleavage came out at 0.104. In the case of GUCCUCUUUCACGUGCGCGUGAAAGAGAGAAGUGAACCAGCGAAACACACGUUGUGGUAUUUUACCUGGUA [A41C A61U], the self-cleavage came out at 0.234. The value for GUCCUCUUUCACGUGCGCGUCAAAGAGAGAAGUGAACCAGAGAAACACACGUAGUGGUAUAUUACCUGGUA [G21C U53A] was 0.671; that for GUCCUCUUUCACGUGCGCGUGAAAGAGAGGAGUGAACCCGAGAAACACACGUUGUGGUAUAUUACCUGGUA [A30G A39C] was 0.106; that for GUCCUCUUUCACGUGCGCGUGAAAGAGAGAAGUGAACCAGAGCAACACACGUUGUGCUAUAUUACCUGGUA [A43C G57C] was 0.204. For the variant GUCCCCUUUCACGUGCGCGUGAAAGAGAGAAGUGAACCAGAGAAACACGCGUUGUGGUAUAUUACCUGGUA [U5C A49G], the self-cleavage came out at 0.343. The value for GUCCUCUUUCACGUGCGCGUGAAAGAGAGAAGUGAACCAGAGAAACAUACGCUGUGGUAUAUUACCUGGUA [C48U U52C] was 0.194; that for GUCCUCUUUCACGUGCGCGUGAAAGAGAGAAGUGAACCAGAGAAACACACGUUGUGGCAUAUUACUUGGUA [U58C C66U] was 0.546; that for GUCCUCUUUCUCGUGCGCGUGAACGAGAGAAGUGAACCAGAGAAACACACGUUGUGGUAUAUUACCUGGUA [A11U A24C] was 0.211. The value for GUCCUCUUUCACGUGCGCGUGAAUGAGAGAGGUGAACCAGAGAAACACACGUUGUGGUAUAUUACCUGGUA [A24U A31G] was 0.392; that for GUCCUCUUUCACGUGCGCGUGAAAGAGAGAAGUGAACCAGAGAAAUAUACGUUGUGGUAUAUUACCUGGUA [C46U C48U] was 0.139; that for GUCCUCUUUCACGUGCGCGUGAAAGAGAGAAGUGAACCAGAGAAACAUACGUAGUGGUAUAUUACCUGGUA [C48U U53A] was 0.0973. As for GUCCUCUUUCACGUGCGCGUGAAAGAGAGAAGUGAACCAGAGAAACAGACCUUGUGGUAUAUUACCUGGUA [C48G G51C], the self-cleavage was 0.0824. For GUCCUCUUUAACGUGCGCGUGAAAGAGAGAAGUGAACCAGAGAAACACACUUUGUGGUAUAUUACCUGGUA [C10A G51U], the self-cleavage came to 0.678.
